The values below come from patent US20030185828.

The data set addresses recombinant aggrecan G1G2 (globular domain 1-globular domain 2 of human aggrecan with N-terminal FLAG tag and C-terminal His tag), P16112.

Chain of recombinant aggrecan G1G2 (globular domain 1-globular domain 2 of human aggrecan with N-terminal FLAG tag and C-terminal His tag), P16112 (P16112 20-675): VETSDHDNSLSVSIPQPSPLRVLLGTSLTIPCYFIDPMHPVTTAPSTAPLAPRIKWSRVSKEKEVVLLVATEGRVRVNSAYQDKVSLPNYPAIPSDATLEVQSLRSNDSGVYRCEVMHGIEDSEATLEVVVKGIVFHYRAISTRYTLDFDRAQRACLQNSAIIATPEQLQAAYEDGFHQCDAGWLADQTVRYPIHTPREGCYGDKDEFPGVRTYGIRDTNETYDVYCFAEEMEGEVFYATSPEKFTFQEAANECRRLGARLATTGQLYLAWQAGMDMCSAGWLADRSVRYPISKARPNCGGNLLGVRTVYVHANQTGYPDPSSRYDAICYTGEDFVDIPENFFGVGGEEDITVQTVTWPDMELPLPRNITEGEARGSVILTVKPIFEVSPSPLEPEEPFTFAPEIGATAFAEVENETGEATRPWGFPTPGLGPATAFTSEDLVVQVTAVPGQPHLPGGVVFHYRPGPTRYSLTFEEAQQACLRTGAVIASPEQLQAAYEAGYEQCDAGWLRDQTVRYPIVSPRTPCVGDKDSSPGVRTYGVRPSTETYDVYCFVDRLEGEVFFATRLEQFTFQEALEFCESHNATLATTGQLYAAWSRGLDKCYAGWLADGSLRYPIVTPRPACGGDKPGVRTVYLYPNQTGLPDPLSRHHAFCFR

B1: MDTS8 full-length protein (MDTS8Full) with FLAG tag added to the C-terminus, expressed from plasmid pCEPdE2-MDTS8Full-FLAG (protein)
chain: MECALLLACAFPAAGSGPPRGLAGLGRVAKALQLCCLCCASVAAALASDSSSGASGLNDDYVFVTPVEVDSAGSYISHDILHNGRKKRSAQNARSSLHYRFSAFGQELHLELKPSAILSSHFIVQVLGKDGASETQKPEVQQCFYQGFIRNDSSSSVAVSTCAGLSGLIRTRKNEFLISPLPQLLAQEHNYSSPAGHHPHVLYKRTAEEKIQRYRGYPGSGRNYPGYSPSHIPHASQSRETEYHHRRLQKQHFCGRRKKYAPKPPTEDTYLRFDEYGSSGRPRRSAGKSQKGLNVETLVVADKKMVEKHGKGNVTTYILTVMNMVSGLFKDGTIGSDINVVVVSLILLEQEPGGLLINHHADQSLNSFCQWQSALIGKNGKRHDHAILLTGFDICSWKNEPCDTLGFAPISGMCSKYRSCTINEDTGLGLAFTIAHESGHNFGMIHDGEGNPCRKAEGNIMSPTLTGNNGVFSWSSCSRQYLKKFLSTPQAGCLVDEPKQAGQYKYPDKLPGQIYDADTQCKWQFGAKAKLCSLGFVKDICKSLWCHRVGHRCETKFMPAAEGTVCGLSMWCRQGQCVKFGELGPRPIHGQWSAWSKWSECSRTCGGGVKFQERHCNNPKPQYGGLFCPGSSRIYQLCNINPCNENSLDFRAQQCAEYNSKPFRGWFYQWKPYTKVEEEDRCKLYCKAENFEFFFAMSGKVKDGTPCSPNKNDVCIDGVCELVGCDHELGSKAVSDACGVCKGDNSTCKFYKGLYLNQHKANEYYPVVIIPAGARSIEIQELQVSSSYLAVRSLSQKYYLTGGWSIDWPGEFPFAGTTFEYQRSFNRPERLYAPGPTNETLVFEILMQGKNPGIAWKYALPKVMNGTPPATKRPAYTWSIVQSECSVSCGGGYINVKAICLRDQNTQVNSSFCSAKTKPVTEPKICNAFSCPAYWMPGEWSTCSKACAGGQQSRKIQCVQKKPFQKEEAVLHSLCPVSTPTQVQACNSHACPPQWSLGPWSQCSKTCGRGVRKRELLCKGSAAETLPESQCTSLPRPELQEGCVLGRCPKNSRLQWVASSWSECSATCGLGVRKREMKCSEKGFQGKLITFPERRCRNIKKPNLDLEETCNRRACPAHPVYNMVAGWYSLPWQQCTVTCGGGVQTRSVHCVQQGRPSSSCLLHQKPPVLRACNTNFCPAPEKREDPSCVDFFNWCHLVPQHGVCNHKFYGKQCCKSCTRKIAAADYKDDDDK
For B1, the “degradation product reactive with the anti-aggrecanase neoepitope antibody (western blotting after overnight reaction at 37 C)” value is recorded as “such degradation products were detected when the culture supernatant of the HEK293-EBNA cell transfected with the plasmid pCEPdE2-MDTS8Full-FLAG was reacted with the recombinant G1G2”.
